In patent US20180085432A1, “STING (Stimulator of Interferon Genes), A Regulator of Innate Immune Responses” (University of Miami, priority 2008, published 2018):

B1: ULK1 (enzyme)
chain: MEPGRGGTETVGKFEFSRKDLIGHGAFAVVFKGRHREKHDLEVAVKCINKKNLAKSQTLLGKEIKILKELKHENIVALYDFQEMANSVYLVMEYCNGGDLADYLHAMRTLSEDTIRLFLQQIAGAMRLLHSKGIIHRDLKPQNILLSNPAGRRANPNSIRVKIADFGFARYLQSNMMAATLCGSPMYMAPEVIMSQHYDGKADLWSIGTIVYQCLTGKAPFQASSPQDLRLFYEKNKTLVPTIPRETSAPLRQLLLALLQRNHKDRMDFDEFFHHPFLDASPSVRKSPPVPVPSYPSSGSGSSSSSSSTSHLASPPSLGEMQQLQKTLASPADTAGFLHSSRDSGGSKDSSCDTDDFVMVPAQFPGDLVAEAPSAKPPPDSLMCSGSSLVASAGLESHGRTPSPSPPCSSSPSPSGRAGPFSSSRCGASVPIPVPTQVQNYQRIERNLQSPTQFQTPRSSAIRRSGSTSPLGFARASPSPPAHAEHGGVLARKMSLGGGRPYTPSPQVGTIPERPGWSGTPSPQGAEMRGGRSPRPGSSAPEHSPRTSGLGCRLHSAPNLSDLHVVRPKLPKPPTDPLGAVFSPPQASPPQPSHGLQSCRNLRGSPKLPDFLQRNPLPPILGSPTKAVPSFDFPKTPSSQNLLALLARQ
B2: ULK2 (enzyme)
chain: MEVVGDFEYSKRDLVGHGAFAVVFRGRHRQKTDWEVAIKSINKKNLSKSQILLGKEIKILKELQHENIVALYDVQELPNSVFLVMEYCNGGDLADYLQAKGTLSEDTIRVFLHQIAAAMRILHSKGIIHRDLKPQNILLSYANRRKSSVSGIRIKIADFGFARYLHSNMMAATLCGSPMYMAPEVIMSQHYDAKADLWSIGTVIYQCLVGKPPFQANSPQDLRMFYEKNRSLMPSIPRETSPYLANLLLGLLQRNQKDRMDFEAFFSHPFLEQGPVKKSCPVPVPMYSGSVSGSSCGSSPSCRFASPPSLPDMQHIQEENLSSPPLGPPNYLQVSKDSASTSSKNSSCDTDDFVLVPHNISSDHSCDMPVGTAGRRASNEFLVCGGQCQPTVSPHSETAPIPVPTQIRNYQRIEQNLTSTASSGTNVHGSPRSAVVRRSNTSPMGFLRPGSCSPVPADTAQTVGRRLSTGSSRPYSPSPLVGTIPEQFSQCCCGHPQGHDSRSRNSSGSPVPQAQSPQSLLSGARLQSAPTLTDIYQNKQKLRKQHSDPVCPSHTGAGYSYSPQPSRPGSLGTSPTKHLGSSPRSSDWFFKTPLPTIIGSPTKTTAPFKIPKTQASSNLLALVTRHGPAEE

Columns and labels:
STING [1] = target: T1, STING (Mus musculus, UniProt Q3TBT3); experiment: STING trafficking in MEFs stably transfected with HA-STING after ISD stimulation; format: cell-based, murine; conditions: Brefeldin A (0.1 ng/ml) or chloroquine (0.1 mM) for 1 hour prior to ISD stimulation
T1 construct: expressed in transfected cells
T1 sequence (Q3TBT3 1-378): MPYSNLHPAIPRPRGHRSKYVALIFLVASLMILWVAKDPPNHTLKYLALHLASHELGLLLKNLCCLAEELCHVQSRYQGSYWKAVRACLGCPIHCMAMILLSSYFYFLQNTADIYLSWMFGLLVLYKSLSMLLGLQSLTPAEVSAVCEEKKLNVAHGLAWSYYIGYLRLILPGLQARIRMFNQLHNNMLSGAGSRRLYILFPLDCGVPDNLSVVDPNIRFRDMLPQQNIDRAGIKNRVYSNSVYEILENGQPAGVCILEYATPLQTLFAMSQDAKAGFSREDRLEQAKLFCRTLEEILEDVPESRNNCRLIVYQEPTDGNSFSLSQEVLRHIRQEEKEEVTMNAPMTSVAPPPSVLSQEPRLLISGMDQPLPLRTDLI
Method: FIG. 32B: MEFs stably transfected with HA-STING were treated with Brefeldin A (0.1 ng/ml) or chloroquine (0.1 mM) for 1 hour prior to ISD stimulation (3 hours 1 ng/ml in Lipofectamine 2000). Green=anti-HA and red=anti-calreticulin. FIG. 32C: Wild type MEFs were treated with Brefeldin A as above and IFNβ mRNA measured. FIGS. 32D, 32E: 293T cells were treated with various concentrations of Brefeldin A as above were co-transfected with STING, constitutively active IRF3 or IRF7 and IFN-luciferase reporter plasmid. Luciferase was measured after 24 hours. FIGS. 32F, 32G: Macrophages treated with various chloroquine amounts for one hour were treated with ISD (1 ng/ml), poly (dAT-dAT) [1 ng/ml] or LPS (1ng/ml) and after 16 hours IFNβ or IL6 measured by ELISA. FIG. 32H: STING^−/− MEFS were transfected with HA-STING or HA-STINGΔSP (that lacks the first 36 amino acids representing a potential signal peptide motif) for 24 hours prior to treatment with ISD (1 ng/ml). After 3 hours STING localization was measured using immunofluorescence and an anti-HA antibody (green) or anti calreticulin antibody (red). FIG. 32I: 293T cells were co-transfected with HA-STING or HA-STINGΔSP and an IFN-Luciferase plasmid and after 24 hours luciferase was measured. […] Asterisks indicate significant difference (P<0.05) as determined by Student's t-test. Error bars indicate s.d. […]

STING [2] = target: STING (Homo sapiens, UniProt Q86WV6); experiment: STING cell based assay, drug library screen
S366 peptide = experiment: screening of kinases for S366 of STING (33P-ATP); format: biochemical; conditions: for Fold inducton: S366 peptide vs A366 peptide; for Activity, S366 peptide: kinase mixed with peptide and 33P-ATP
Method: (§1) The activity of 217 protein kinase targets were evaluated against 2 peptides (A366 and S366) as substrate. Protein kinases were mixed with each peptide and ^33P-ATP and then activity (CPM) was measured. The below kinases were identified as phosphorylating S366 in STING. Identification of kinases which target this serine opens up novel avenues for drug discovery. Drugs that target this association may inhibit STING activity and be used for therapeutic purposes to inhibit STING activity. STING over activity may lead to inflammatory diseases which can exacerbate cancer.

A366 peptide = experiment: screening of kinases for S366 of STING (33P-ATP); format: biochemical; conditions: kinase mixed with peptide and 33P-ATP
Method: as §1

Sequence of STING (Homo sapiens, UniProt Q86WV6) (Q86WV6 whole entry): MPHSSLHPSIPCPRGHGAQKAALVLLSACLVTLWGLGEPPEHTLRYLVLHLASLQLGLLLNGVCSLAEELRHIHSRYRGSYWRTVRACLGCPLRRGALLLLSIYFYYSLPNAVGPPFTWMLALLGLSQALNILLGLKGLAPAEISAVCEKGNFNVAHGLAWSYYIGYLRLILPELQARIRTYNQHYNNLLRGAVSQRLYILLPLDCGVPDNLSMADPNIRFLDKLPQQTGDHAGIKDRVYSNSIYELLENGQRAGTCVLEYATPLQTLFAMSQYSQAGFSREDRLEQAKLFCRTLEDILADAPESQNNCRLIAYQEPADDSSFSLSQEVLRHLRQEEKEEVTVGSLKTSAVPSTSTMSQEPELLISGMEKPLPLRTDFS

Molecule	STING trafficking (STING [1])	Activators of STING (STING [2])	Fold inducton (S366 peptide)	Activity, S366 peptide (S366 peptide) [cpm]	Activity, A366 peptide (A366 peptide) [cpm]	Activity (cpm), kinase mixed with peptide and 33P-ATP (S366 peptide of STING) [cpm]	Activity (cpm), kinase mixed with peptide and 33P-ATP (A366 peptide of STING) [cpm]
C[C@H]1CCC/C=C/[C@@H]2C[C@H](O)C[C@H]2[C@H](O)/C=C/C(=O)O1 [Brefeldin A]	blocked STING trafficking	–	–	–	–	–	–
CCN(CC)CCCC(C)Nc1ccnc2cc(Cl)ccc12 (centres unmarked) [chloroquine]	but not chloroquine blocked STING trafficking	–	–	–	–	–	–
O=C(O)/C=C\C(=O)O.O=C1/C(=C/c2ccccc2)C[C@@]2(O)[C@H]3Cc4ccc(O)c5c4[C@@]2(CCN3CC2CC2)[C@H]1O5 [BNTX maleate salt hydrate]	–	Activators of STING	–	–	–	–	–
C[C@@H]1O[C@@H](O[C@H]2C[C@@H](O)[C@]3(CO)[C@H]4[C@H](O)C[C@]5(C)[C@@H]([C@@H]6COC(=O)C6)CC[C@]5(O)[C@@H]4CC[C@]3(O)C2)[C@H](O)[C@H](O)[C@H]1O [dihydroouabain]	–	Activators of STING	–	–	–	–	–
B1	–	–	17.10	209014	12221	209000	12200
B2	–	–	21.13	15580	7377	15600	7380
